Legend:
[1] = molecular target: T1, chromogranin A (CgA) (Homo sapiens, UniProt P10645 P10645:19-457); experiment: capillary electrophoresis specificity control; details: tags: N-terminal His-tag; full length, Creative BioMart CHGA-26904TH; label: 5' TYE665
T1 sequence: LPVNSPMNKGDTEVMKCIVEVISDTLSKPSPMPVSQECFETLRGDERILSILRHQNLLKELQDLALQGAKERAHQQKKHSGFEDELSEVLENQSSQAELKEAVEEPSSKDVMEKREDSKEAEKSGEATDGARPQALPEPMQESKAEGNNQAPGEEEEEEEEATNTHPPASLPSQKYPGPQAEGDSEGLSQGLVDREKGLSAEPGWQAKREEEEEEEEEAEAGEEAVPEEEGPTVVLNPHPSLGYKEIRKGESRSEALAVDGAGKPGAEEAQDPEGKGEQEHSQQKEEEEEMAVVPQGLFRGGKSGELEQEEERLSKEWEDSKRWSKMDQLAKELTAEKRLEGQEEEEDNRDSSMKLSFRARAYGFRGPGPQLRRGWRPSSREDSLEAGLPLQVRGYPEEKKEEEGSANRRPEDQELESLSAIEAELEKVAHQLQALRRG
Method: (§1) Reaction solutions containing the labeled aptamer (SEQ ID NO: 1) were prepared. Each of the reaction solutions was subjected to CAE under the following conditions. The reaction solution was caused to migrate while separating the components therefrom, and the fluorescence at a maximum absorption wavelength (665 nm) of the fluorescent substance was measured. As the reaction solutions, the following four types of reaction solutions were used: a reaction solution 1 containing the labeled aptamer only; a reaction solution 2 containing the labeled aptamer and the α-amylase; a reaction solution 3 containing the labeled aptamer and the saliva; and a reaction solution 4 containing the labeled aptamer as the negative control and the saliva. In each of the reaction solutions, the concentration of the labeled aptamer was 200 nmol/L. In the reaction solution 2, the concentration of the α-amylase was 2 μmol/L. In the reaction solutions 3 and 4, the concentration of the saliva was 10%. The reminder of each of the reaction solutions was a buffer solution. The composition of the buffer solution was as follows: 40 mmol/L HEPES (pH 7.5), 125 mmol/L NaCl, 5 mmol/L KCl, and 1 mmol/L MgCl₂.
(§2) Preparation of the reaction solution 2 and the binding ability analysis by CAE were carried out in the same manner as in the above item (3), except that the labeled aptamers (SEQ ID NOs: 1, 2, 3, and 19) were used. Further, in order to examine the specificity of the labeled aptamers to the α-amylase, the binding ability analysis by CAE was performed in the same manner as in the case where the above-described reaction solution 2 was used, except that, instead of the α-amylase, human chromogranin A (CgA, recombinant full length protein, Creative BioMart, #CHGA-26904TH) or human IgA (secretory, Biomedicals, LLC-Cappel Products, #55905), each having a His-tag fused at the N terminus were used.

[2] = molecular target: T2, alpha-amylase (Homo sapiens, UniProt P0DUB6 P0DUB6:16-511); experiment: capillary electrophoresis; 200 nM aptamer, 2 uM amylase, 1 mM MgCl2; details: tags: none stated; commercial human alpha-amylase, Lee Biosolutions; label: 5' TYE665
T2 sequence: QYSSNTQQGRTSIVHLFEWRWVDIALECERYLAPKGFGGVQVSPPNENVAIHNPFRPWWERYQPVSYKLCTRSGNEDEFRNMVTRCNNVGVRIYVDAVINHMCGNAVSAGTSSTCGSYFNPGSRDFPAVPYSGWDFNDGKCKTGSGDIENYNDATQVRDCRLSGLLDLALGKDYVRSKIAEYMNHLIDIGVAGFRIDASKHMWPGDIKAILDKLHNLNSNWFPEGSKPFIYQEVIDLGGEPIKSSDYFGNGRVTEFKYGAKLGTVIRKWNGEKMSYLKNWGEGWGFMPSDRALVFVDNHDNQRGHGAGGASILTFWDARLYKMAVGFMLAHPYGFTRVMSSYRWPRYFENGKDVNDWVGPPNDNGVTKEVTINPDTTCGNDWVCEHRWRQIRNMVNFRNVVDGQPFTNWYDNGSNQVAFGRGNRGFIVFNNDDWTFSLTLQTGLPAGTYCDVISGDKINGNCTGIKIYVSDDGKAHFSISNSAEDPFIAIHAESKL
Method: as §1, §2

[3] = molecular target: T2, alpha-amylase; experiment: SPR; 400 nM amylase, 1 mM MgCl2, pH 7.4; details: tags: none stated; commercial human alpha-amylase, Lee Biosolutions; label: 3' poly(dA)20 captured on biotin-poly(dT)20
Method: The analysis of the binding ability was carried out using a ProteON XPR36 (BioRad) in accordance with its instructions for use.
First, as a sensor chip designed specifically for the ProteON, a streptavidin-immobilized chip (trade name: ProteOn NLC Sensor Chip, BioRad) was set in the ProteON XPR36. Biotinylated poly(dT) at 5 μmol/L was injected to a flow cell of the sensor chip using ultrapure water (DDW), and the binding was allowed to proceed until the signal intensity (RU: Resonance Unit) reached about 900 RU. The biotinylated poly(dT) was prepared by biotinylating the 5′ end of 20-mer deoxythymidine. Then, the poly(dA)-added aptamer at 200 nmol/L was injected to the flow cell of the chip using an SPR buffer at a flow rate of 25 μL/min for 80 seconds, and the binding was allowed to proceed until the signal intensity reached about 800 RU. […] Subsequently, the specimen was injected using the SPR buffer at a flow rate of 50 μL/min for 120 seconds, followed by washing performed by flowing the SPR buffer under the same conditions for 300 seconds. The concentration of the human α-amylase in the specimen was set to 400 nmol/L. Signal intensity measurement was performed concurrently with the injection of the specimen and the washing with the SPR buffer. With 0 seconds being the start of the injection, the mean value of signal intensities from 115 seconds to 125 seconds was determined. […] Then, the value (B/A) obtained by dividing the protein binding measured value (B) by the aptamer immobilization measured value (A) was determined as a relative value (Relative Unit).

[4] = molecular target: T2, alpha-amylase; experiment: SPR; SPR buffer with 1 mM MgCl2, pH 7.4; Chi2 5.18; details: tags: none stated; commercial human alpha-amylase, Lee Biosolutions; label: 3' poly(dA)20 captured on biotin-poly(dT)20
Method: (§3) Biotinylated poly(dT) at 5 μmol/L was injected to a flow cell of the sensor chip using ultrapure water (DDW), and the binding was allowed to proceed until the signal intensity (RU: Resonance Unit) reached about 900 RU. The biotinylated poly(dT) was prepared by biotinylating the 5′ end of 20-mer deoxythymidine. Then, the poly(dA)-added aptamer at 200 nmol/L was injected to the flow cell of the chip using an SPR buffer at a flow rate of 25 μL/min for 80 seconds, and the binding was allowed to proceed until the signal intensity reached about 800 RU. […] With 0 seconds being the start of the injection, the mean value of signal intensities from 115 seconds to 125 seconds was determined. […] Then, the value (B/A) obtained by dividing the protein binding measured value (B) by the aptamer immobilization measured value (A) was determined as a relative value (Relative Unit).
(§4) The binding ability of the aptamers was analyzed by SPR in the same manner as in Example 1, except that the concentration of the α-amylase in the specimen was set to a plurality of values. The concentration was set to 20 nmol/L, 10 nmol/L, 5 nmol/L, 2.5 nmol/L, and 1.25 nmol/L. Then, from the results obtained by the SPR analysis, the kinetic parameter and the chi-squared value were calculated.

[5] = molecular target: T2, alpha-amylase; experiment: SPR; SPR buffer with 1 mM MgCl2, pH 7.4; Chi2 23.63; details: tags: none stated; commercial human alpha-amylase, Lee Biosolutions; label: 3' poly(dA)20 captured on biotin-poly(dT)20
Method: as §3, §4

[6] = molecular target: T2, alpha-amylase; experiment: SPR; SPR buffer with 1 mM MgCl2, pH 7.4; Chi2 5.69; details: tags: none stated; commercial human alpha-amylase, Lee Biosolutions; label: 3' poly(dA)20 captured on biotin-poly(dT)20
Method: as §3, §4

[7] = molecular target: T2, alpha-amylase; experiment: SPR; SPR buffer with 1 mM MgCl2, pH 7.4; Chi2 18.8; details: tags: none stated; commercial human alpha-amylase, Lee Biosolutions; label: 3' poly(dA)20 captured on biotin-poly(dT)20
Method: as §3, §4

B1: TYE665-AML1243KR8m2 (ssDNA)
DNA: GGATACCTTAACGCCGCCTATTGCTATGAGTAGTGTTTGTAGGTCTGGCATGCGAGTTGCACCCGTCTCGAAATC
modifications: KS9 modified T (formula 1) at underlined T, i.e. T 3' of the 5' primer region
Q: Does B1 bind [1]?
A: Result: no binding

Q: Does B1 bind [2]?
A: Result: binds

B2: Amy_258KK10R8m3 (ssDNA)
DNA: GGTTACGCCCAGGACACATTTCAGAGCGTAAACAGTCCTGGTTGGCAAATGTGTAAGCTCGGTCTCCTCGGATAATCAAAAAAAAAAAAAAAAAAAA
modifications: KK10 modified T (formula 2) at double-underlined T, i.e. T 3' of the 5' primer region
Q: Does B2 bind [3]?
A: Result: binds

B3: AML1243KR8m1s65_FW_s15 (ssDNA)
DNA: TAACGCCGCCTATTGTGAACGACGTGAATAGTGTTTGTGGGTCCGGAGTTGCACCCGAAAAAAAAAAAAAAAAAAAA
modifications: KS9 modified T (formula 1) at underlined T, i.e. T 3' of the 5' primer region
Q: With B3 as the binder, how does the Kd [4] read?
A: Its Kd is 0.447 nM.

B4: AML1243KR8m3s63 (ssDNA)
DNA: GGATACCTTAACGCCGCCTATTGCGAGGTGTGGCTAGTCGTTATAGGTCCACCGAGTTGCACCAAAAAAAAAAAAAAAAAAAA
modifications: KS9 modified T (formula 1) at underlined T, i.e. T 3' of the 5' primer region
Q: Which Kd [5] does the source give for B4 here?
A: Its Kd is 16.4 nM.

B5: TYE665-AML1243KR8m3 (ssDNA)
DNA: GGATACCTTAACGCCGCCTATTGCGAGGTGTGGCTAGTCGTTATAGGTCCACCGAGTTGCACCCGTCTCGAAATC
modifications: KS9 modified T (formula 1) at underlined T, i.e. T 3' of the 5' primer region
Q: Does B5 bind [1]?
A: Result: no binding

Q: Does B5 bind [2]?
A: Result: binds

B6: Amy_258KK10R8m4 (ssDNA)
DNA: GGTTACGCCCAGGACACATTTCTGTAGTGAAGTCCTGGTTGGCAAATTCATGGTAAGCTCGGTCTCCTCGGATAATCAAAAAAAAAAAAAAAAAAAA
modifications: KK10 modified T (formula 2) at double-underlined T, i.e. T 3' of the 5' primer region
Q: B6 was tested. Which Kd [6] did it give?
A: The Kd was 7.34 nM.

B7: AML2243KR8m3 (ssDNA)
DNA: GGATACCTTAACGCCGCCTATTGGTGTCACTAGTGTTTGTCGGTGCCAGCAAGGAGTTGCACCCGTCTCGAAATCAAAAAAAAAAAAAAAAAAAA
modifications: KS9 modified T (formula 1) at underlined T, i.e. T 3' of the 5' primer region
Q: Does B7 bind [3]?
A: Result: binds

B8: AML1243KR8m2s49 (ssDNA)
DNA: GGATACCTTAACGCCGCCTATTGCTATGAGTAGTGTTTGTAGGTCTGGCAAAAAAAAAAAAAAAAAAAA
modifications: KS9 modified T (formula 1) at underlined T, i.e. T 3' of the 5' primer region
Q: With B8 as the binder, how does the Kd [7] read?
A: The Kd was 3.19 nM.
